Laboratory results as given in US20220153848A1 (DRAGONFLY THERAPEUTICS, published 2022).

Target: c-MET on the surface of HT29 and HCT-116 human colon cancer cells (human, UniProt P08581 25-1390)
Assay: cell-based or functional assay

Chain of c-MET on the surface of HT29 and HCT-116 human colon cancer cells (P08581 25-1390 limits assumed): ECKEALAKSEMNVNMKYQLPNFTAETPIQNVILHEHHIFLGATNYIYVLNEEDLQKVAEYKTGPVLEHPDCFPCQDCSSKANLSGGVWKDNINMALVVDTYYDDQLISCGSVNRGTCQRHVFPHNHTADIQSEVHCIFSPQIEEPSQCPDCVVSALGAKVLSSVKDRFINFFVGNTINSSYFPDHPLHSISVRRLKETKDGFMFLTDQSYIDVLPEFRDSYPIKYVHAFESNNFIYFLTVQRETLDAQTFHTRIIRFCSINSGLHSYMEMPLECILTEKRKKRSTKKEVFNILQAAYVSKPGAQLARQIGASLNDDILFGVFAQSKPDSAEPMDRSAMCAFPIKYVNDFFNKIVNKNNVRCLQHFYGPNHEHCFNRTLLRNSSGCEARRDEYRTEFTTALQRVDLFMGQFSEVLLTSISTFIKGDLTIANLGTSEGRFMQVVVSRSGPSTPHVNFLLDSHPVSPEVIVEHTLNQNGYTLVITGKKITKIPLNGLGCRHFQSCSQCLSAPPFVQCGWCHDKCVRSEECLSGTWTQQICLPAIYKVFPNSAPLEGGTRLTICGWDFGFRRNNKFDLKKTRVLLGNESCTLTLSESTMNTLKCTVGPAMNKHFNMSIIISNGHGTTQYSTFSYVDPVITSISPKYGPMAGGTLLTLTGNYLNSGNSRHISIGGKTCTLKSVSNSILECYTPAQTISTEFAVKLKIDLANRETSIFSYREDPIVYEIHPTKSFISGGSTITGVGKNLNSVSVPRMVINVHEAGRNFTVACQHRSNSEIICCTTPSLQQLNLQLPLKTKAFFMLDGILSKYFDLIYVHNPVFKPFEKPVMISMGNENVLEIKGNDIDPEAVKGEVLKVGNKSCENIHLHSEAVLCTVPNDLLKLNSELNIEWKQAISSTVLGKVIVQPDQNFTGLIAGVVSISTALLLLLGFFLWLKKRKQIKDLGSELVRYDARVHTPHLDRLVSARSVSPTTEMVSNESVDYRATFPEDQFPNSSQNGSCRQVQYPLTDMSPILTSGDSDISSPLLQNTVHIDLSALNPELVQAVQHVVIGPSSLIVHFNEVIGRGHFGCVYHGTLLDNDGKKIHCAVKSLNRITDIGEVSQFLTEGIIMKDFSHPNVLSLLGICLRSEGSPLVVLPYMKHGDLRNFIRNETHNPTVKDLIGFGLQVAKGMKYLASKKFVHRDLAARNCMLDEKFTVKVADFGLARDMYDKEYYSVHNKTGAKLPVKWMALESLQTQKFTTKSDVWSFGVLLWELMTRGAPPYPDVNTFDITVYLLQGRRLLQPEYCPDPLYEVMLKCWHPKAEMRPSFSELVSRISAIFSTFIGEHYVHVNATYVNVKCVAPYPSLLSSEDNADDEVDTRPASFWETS

B1: A49MI-Duobody-TriNKET-Onartuzumab (bispecific antibody, human IgG1, kappa)
heavy 1: not shown
light 1: DIQMTQSPSSLSASVGDRVTITCKSSQSLLYTSSQKNYLAWYQQKPGKAPKLLIYWASTRESGVPSRFSGSGSGTDFTLTISSLQPEDFATYYCQQYYAYPWTFGQGTKVEIKRTVAAPSVFIFPPSDEQLKSGTASVVCLLNNFYPREAKVQWKVDNALQSGNSQESVTEQDSKDSTYSLSSTLTLSKADYEKHKVYACEVTHQGLSSPVTKSFNRGEC
heavy 2: not shown
light 2: DIQMTQSPSSVSASVGDRVTITCRASQGISSWLAWYQQKPGKAPKLLIYAASSLQSGVPSRFSGSGSGTDFTLTISSLQPEDFATYYCQQGVSFPRTFGGGTKVEIKRTVAAPSVFIFPPSDEQLKSGTASVVCLLNNFYPREAKVQWKVDNALQSGNSQESVTEQDSKDSTYSLSSTLTLSKADYEKHKVYACEVTHQGLSSPVTKSFNRGEC
B1 was tested, and the “EC50 of human NK cell lysis of c-MET positive target cells (DELFIA cytotoxicity assay)” value (shortened to “EC50”) was < 1 nM.

B2: A49MI-Duobody-TriNKET-ABT-700 (bispecific antibody, human IgG1, kappa)
heavy 1: not shown
light 1: not shown
heavy 2: not shown
light 2: DIQMTQSPSSVSASVGDRVTITCRASQGISSWLAWYQQKPGKAPKLLIYAASSLQSGVPSRFSGSGSGTDFTLTISSLQPEDFATYYCQQGVSFPRTFGGGTKVEIKRTVAAPSVFIFPPSDEQLKSGTASVVCLLNNFYPREAKVQWKVDNALQSGNSQESVTEQDSKDSTYSLSSTLTLSKADYEKHKVYACEVTHQGLSSPVTKSFNRGEC
With B2 the “EC50” value was < 1 nM.

B3: A49MI-Duobody-TriNKET-Emibetuzumab (bispecific antibody, human IgG1, kappa)
heavy 1: not shown
light 1: DIQMTQSPSSLSASVGDRVTITCSVSSSVSSIYLHWYQQKPGKAPKLLIYSTSNLASGVPSRFSGSGSGTDFTLTISSLQPEDFATYYCQVYSGYPLTFGGGTKVEIKRTVAAPSVFIFPPSDEQLKSGTASVVCLLNNFYPREAKVQWKVDNALQSGNSQESVTEQDSKDSTYSLSSTLTLSKADYEKHKVYACEVTHQGLSSPVTKSFNRGEC
heavy 2: not shown
light 2: DIQMTQSPSSVSASVGDRVTITCRASQGISSWLAWYQQKPGKAPKLLIYAASSLQSGVPSRFSGSGSGTDFTLTISSLQPEDFATYYCQQGVSFPRTFGGGTKVEIKRTVAAPSVFIFPPSDEQLKSGTASVVCLLNNFYPREAKVQWKVDNALQSGNSQESVTEQDSKDSTYSLSSTLTLSKADYEKHKVYACEVTHQGLSSPVTKSFNRGEC
B3 was tested, and the “EC50” value was < 1 nM.
